Test results as given in patent US9526737B2, “Oxysterols for activation of hedgehog signaling, osteoinduction, antiadipogenesis, and Wnt signaling” (THE REGENTS OF THE UNIVERSITY OF CALIFORNIA, priority 2007, dated 2016).

Tests used:
[1] = system: hedgehog signaling pathway; assay: Hedgehog signaling pathway activation (8X-Gli reporter, Gli 1 and Patched Q-RT-PCR, cyclopamine inhibition); format: cell-based; conditions: M2 cells
Protocol: M2-10B4 bone marrow stromal cells were transfected with an 8XGli luciferase reporter or the empty vector (pGL3b). Cells were subsequently treated with control vehicle, 5 μM Oxy49, or 400 ng/ml recombinant human sonic hedgehog (Shh) as positive control. After 48 hours of treatments, reporter luciferase activity was measured and normalized to Renilla luciferase activity (See FIG. 14). […] M2-10B4 bone marrow stromal cells were transfected with an 8XGli luciferase reporter or the empty vector (pGL3b). Cells were subsequently treated with control vehicle, 5 μM Oxy34, or 400 ng/ml recombinant human sonic hedgehog (Shh) as positive control. After 48 hours of treatments, reporter luciferase activity was measured and normalized to Renilla luciferase activity (See FIG. 15). […] After 48 hours of treatments, mRNA was extracted from cells and analyzed by Q-RT-PCR for expression of hedgehog target genes Gli 1 and Patched (See FIGS. 16A and 16B). […] Luciferase reporter activity using a reporter construct with 8X-Gli binding sites • 2. Q-RT-PCR analysis of the induction of hedgehog pathway target gene expression Gli 1 and Patched • 3.

[2] = system: osteocalcin (OCN) mRNA expression; assay: Q-RT-PCR for osteocalcin (OCN) mRNA expression; format: cell-based; conditions: M2 cells pre-treated 2 h with inhibitor, then SS
Protocol: (§1) Total RNA was extracted with the RNA isolation kit from Stratagene (La Jolla, Calif.) according to the manufacturer's instructions. RNA was DNase-treated using the DNA-free kit from Ambion, Inc. (Austin, Tex.). 3 μg of RNA was reverse-transcribed using reverse transcriptase from Stratagene (La Jolla, Calif.) to make single stranded cDNA. The cDNAs were mixed with Qi SYBR Green Supermix from Bio-Rad Laboratories (Hercules, Calif.) for quantitative RT-PCR using a Bio-Rad I-cycler IQ quantitative thermocycler. All PCR samples were prepared in triplicate or quadruplicate. Each sample was added to duplicate wells of a 96-well plate. After 40 cycles of PCR, melt curves were analyzed in order to ensure primer specificity, and the identity of all PCR products were verified by sequencing and comparing with the complete mRNA sequence obtained from PubMed's GenBank. Fold changes in gene expression were calculated using the ΔΔCt method (14). All primers were designed using the Beacon Designer software from Bio-Rad Laboratories (Hercules, Calif.). […]
M2 cells were pre-treated with vehicle or 1 μg/ml Dkk-1 for 2 h followed by treatment with control vehicle or 5 μM SS for 6 days. RNA was isolated and analyzed by Q-RT-PCR for OCN expression (See FIG. 2E).
RNA was analyzed for OCN expression by Q-RT-PCR and normalized to GAPDH (p<0.01 for Control versus SS and for SS versus SS+LY and SS+Wm) (See FIG. 7B).

[3] = system: M2-10B4 marrow stromal cells; assay: 45Ca incorporation assay (matrix mineralization); format: cell-based; conditions: M2 cells pre-treated 2 h with inhibitor, then SS for 12-14 days
Protocol: ^45Ca incorporation assay as a measure of matrix mineralization in cell monolayers was performed as previously described (45).
^45Ca incorporation assay (see Example above) was used to measure mineralization in M2 cells pre-treated with 1 μg/ml Dkk-1 or vehicle for 2 h, and then treated with control vehicle or 2.5 μM SS 12 days (See FIG. 2D).
^45Ca incorporation assay was used to measure mineralization in M2 cells pre-treated with various doses of LY, 1 μM Wm, or vehicle for 2 h, and then treated with 5 μM SS or control vehicle for 14 days (See FIG. 7C).
M2-10B4 cells were treated for 14 days with control vehicle (C) or various concentrations (μM) of oxysterols as indicated. SS refers to 20S-hydroxycholesterol+22S-hydroxycholesterol in combination. After 12 days with refeeding every 5th day, ^45Ca was added and on day 14, ^45Ca incorporation was measured (See FIG. 18).

[4] = system: Patched (Ptch) mRNA expression; assay: Q-RT-PCR for Patched (Ptch) mRNA expression; format: cell-based; conditions: M2 cells pre-treated 2 h with inhibitor, then 5 μM SS for 48 h
Protocol: as §1
M2 cells were pre-treated for 2 h with Dkk-1 or vehicle. […] RNA was isolated and analyzed for Nkd2 (C), Wif-1 (D), and Ptch (E) expression (See FIGS. 5C-5E).

[5] = system: Naked Cuticle 2 (Nkd2) mRNA expression; format: cell-based; conditions: M2 cells pre-treated 2 h with inhibitor, then 5 μM SS for 48 h
Protocol: (§2) Total RNA was extracted with the RNA isolation kit from Stratagene (La Jolla, Calif.) according to the manufacturer's instructions. RNA was DNase-treated using the DNA-free kit from Ambion, Inc. (Austin, Tex.). 3 μg of RNA was reverse-transcribed using reverse transcriptase from Stratagene (La Jolla, Calif.) to make single stranded cDNA. The cDNAs were mixed with Qi SYBR Green Supermix from Bio-Rad Laboratories (Hercules, Calif.) for quantitative RT-PCR using a Bio-Rad I-cycler IQ quantitative thermocycler. All PCR samples were prepared in triplicate or quadruplicate. Each sample was added to duplicate wells of a 96-well plate. After 40 cycles of PCR, melt curves were analyzed in order to ensure primer specificity, and the identity of all PCR products were verified by sequencing and comparing with the complete mRNA sequence obtained from PubMed's GenBank. Fold changes in gene expression were calculated using the ΔΔCt method (14). All primers were designed using the Beacon Designer software from Bio-Rad Laboratories (Hercules, Calif.). Primers used are as follows: OCN (5′-[…]-3′ (SEQ ID NO: 1) and 5′-[…]-3′ (SEQ ID NO: 2)), Axin2(5′[…]-3′ (SEQ ID NO: 3) and 5′-[…]-3′ (SEQ ID NO: 4)), Cyclin D1(5′-[…]-3′ (SEQ ID NO: 5) and 5′-[…]-3′ (SEQ ID NO: 6)), NKD2 (5′-[…]-3′ (SEQ ID NO: 7) and 5′[…]-3′ (SEQ ID NO: 8)), WIF-1 (5′-[…]-3′ (SEQ ID NO: 9) and 5′-[…]-3′ (SEQ ID NO: 10)), and GAPDH (5′-[…]-3′ (SEQ ID NO: 11) and 5′-[…]-3′ (SEQ ID NO: 12)).
(§3) M2 cells were treated with 5 μM SS, 200 ng/ml Shh, or control vehicle for 48 h. RNA was isolated and analyzed by Q-RT-PCR for Nkd2 (E) and WIF-1 (F) expression (See FIGS. 4E and 4F).
(§4) M2 cells were pre-treated for 2 h with vehicle or cyclopamine (Cyc) at the concentrations indicated. Next, cells were treated with 5 μM SS or control vehicle for 48 h. RNA was isolated and analyzed for Nkd2 (A) and WIF-1 (B) expression by Q-RT-PCR (See FIGS. 5A and 5B).
(§5) M2 cells were pre-treated for 2 h with Dkk-1 or vehicle. Next, cells were treated with 5 μM SS or control vehicle for 48 h. RNA was isolated and analyzed for Nkd2 (C), Wif-1 (D), and Ptch (E) expression (See FIGS. 5C-5E).
(§6) M2 cells were pre-treated for 2 h with 5 μM LY, 2.5 μM Wm, or vehicle followed by treatment with 5 μM SS or control vehicle for 48 h. RNA was isolated and analyzed for Nkd2 (FIG. 7E) and Wif-1 (FIG. 7F) expression.

[6] = system: Wnt Inhibitory factor-1 (Wif-1) mRNA expression; format: cell-based; conditions: M2 cells pre-treated 2 h with inhibitor, then 5 μM SS for 48 h
Protocol: as §2, §3, §4, §5, §6

[7] = system: Runx2 DNA binding activity; assay: Runx2 DNA binding activity by EMSA analysis; format: cell-based; conditions: M2 cells
[8] = system: M2-10B4 marrow stromal cells; assay: Alkaline phosphatase (ALP) activity assay
Protocol: The protocol is a modification of alkaline phosphatase assay kit from Sigma. Cells are cultured in 24-well tissue culture plates. After treatments with test agents, cells are rinsed twice with PBS and scraped into 200 ml of lysis buffer (0.2% NP-40 in 1 mM MgCl2) and sonicated for 10 seconds. Next, 1 ml of reaction mixture is added to each well. Reaction mixture is 221 alkaline buffer (Sigma): stock substrate solution (1:1). Stock substrate solution is prepared by dissolving 40 mg of Sigma 104 phosphatase substrate in 10 ml of ddH2O. After addition of reaction mixture to lysed cells, incubation is performed for 30 minutes at 37 C. […] The reaction is stopped by the addition of 12 ml of 1N NaOH to each well, and absorbance is determined at 405 nm. Alkaline phosphatase activity is calculated using p-nitrophenol as a standard, according to Sigma kit's instructions. Results are normalized to total protein in each well determined using the Bio-Rad protein assay solution (Bio-Rad Laboratories).
M2-10B4 marrow stromal cells were treated with oxysterols at various doses for 3 days after which they were collected and analyzed by calorimetric assay for alkaline phosphatase activity (a marker of osteoblastic differentiation) (Table 1); the alkaline phosphatase assay described above was used.
M2-10B4 marrow stromal cells were treated with oxysterols at various doses for 3 days after which they were collected and analyzed by colorimetric assay for alkaline phosphatase activity (a marker of osteoblastic differentiation) (Table 2); the alkaline phosphatase assay described above was used.
M2-10B4 bone marrow stromal cells were treated in culture with control vehicle (C) or various oxysterol (Oxy) molecules as indicated at either 1.25 (1) or 2.5 (2) μM concentrations. After 3 days of treatment, alkaline phosphatase activity as a measure of early osteogenic differentiation of cells was measured in whole cell lysates (See FIG. 9 and Table 3); the alkaline phosphatase assay described above was used.

Inhibition of oxysterol-induced Runx2 DNA binding activity [7] | Molecule | Inhibition of oxysterol-induced hedgehog pathway activation [1] | Inhibition of oxysterol (SS)-induced OCN mRNA expression [2] | Inhibition of oxysterol-induced mineralization (45Ca incorporation) [3] | Inhibition of oxysterol-induced Patched (Ptch) mRNA expression [4] | Inhibition of oxysterol-induced Nkd2 expression [5] | Inhibition of oxysterol-induced Wif-1 expression [6] | Inhibition of BMP-2-induced ALP activity ([8]; M2 cells pre-treated 2 h with 1 or 2 μg/ml Dkk-1, then 50 ng/ml BMP-2 for 3 days) | Inhibition of Shh-induced ALP activity ([8]; M2 cells pre-treated 2 h with inhibitor, then 200 ng/ml Shh for 3 days) | Inhibition of oxysterol-induced ALP activity ([8]; M2 cells pre-treated 2 h with inhibitor, then 2.5 μM SS for 3 days) | ALP activity, agent alone ([8]; M2 cells, Dkk-1 1 or 2 μg/ml without oxysterol)
 | COC[C@H]1OC(=O)c2coc3c2[C@@]1(C)C1=C(C3=O)[C@@H]2CCC(=O)[C@@]2(C)C[C@H]1OC(C)=O [Wm, wortmannin] | did not inhibit |  |  |  |  |  |  |  |  | 
 | O=c1cc(N2CCOCC2)oc2c(-c3ccccc3)cccc12 [LY, LY 294002] | did not inhibit |  |  |  |  |  |  |  |  | 
did not inhibit | Dkk-1: recombinant mouse Dickkopf related protein 1; LRP5/6 inhibitor, Wnt signaling inhibitor (protein, UniProt O54908 32-272, looked up) Dickkopf-related protein 1: TLNSVLINSNAIKNLPPPLGGAGGQPGSAVSVAPGVLYEGGNKYQTLDNYQPYPCAEDEECGSDEYCSSPSRGAAGVGGVQICLACRKRRKRCMRHAMCCPGNYCKNGICMPSDHSHFPRGEIEESIIENLGNDHNAAAGDGYPRRTTLTSKIYHTKGQEGSVCLRSSDCAAGLCCARHFWSKICKPVLKEGQVCTKHKRKGSHGLEIFQRCYCGEGLACRIQKDHHQASNSSRLHTCQRH |  | did not inhibit | Complete and below baseline level inhibition | did not inhibit | almost completely inhibited | only minimally inhibited | only significantly inhibited by using the higher concentration | partially inhibited | partial but significant inhibition | no observed effect
